Test results: patent US20090158455A1, “COMPOSITIONS AND METHODS FOR MODULATING LYSINE PRODUCTION” (priority 2005, published 2009)

Tests used:
N[C@@H](CCC(=O)O)C(=O)O [1] = experiment: purified protein, by the assay type; details: other: forward assay
[2] = system: O=C(O)C1=N[C@H](C(=O)O)CCC1; experiment: purified protein, by the assay type; details: other: forward assay
O=C(O)CCC(=O)C(=O)O = experiment: purified protein, by the assay type; details: other: reverse assay
[3] = system: N[C@@H](CCC[C@H](N)C(=O)O)C(=O)O; experiment: purified protein, by the assay type; details: other: reverse assay
N[C@@H](CCC(=O)O)C(=O)O [4] = experiment: Quantitative forward and reverse assays of purified LL-DAP transaminases (Example III); assay type: biochemical, Desulfitobacterium hafniense DCB-2; details: other: forward assay
Procedure: (§1) This plasmid was transformed into E. coli BL21-CodonPlus®-RIPL for expression and purification of the recombinant protein.
(§2) For protein expression the E. coli strains were grown on LB at 37° C. to an OD600 nm of 0.5 and protein expression was then induced with 1 mM IPTG for 4 hr at 25° C. Cells were lysed by sonication in a solution of 50 mM sodium phosphate and 300 mM NaCl (pH 8.0). Metabolites in the extract were removed by buffer exchange using an Amicon Ultra 30,000 MWCO ultrafilter and sodium phosphate/NaCl buffer, and the concentrated soluble protein sample was used for measurement of enzyme activity as an initial assessment of enzyme function. When the recombinant protein was to be purified a larger cell culture was grown and lysed as described above, but the buffer exchange step was not carried out. […] The pure protein was then concentrated in an Amicon Ultra 30,000 MWCO ultrafilter, replacing the elution buffer with 100 mM HepesKOH, pH 7.6.

[5] = system: O=C(O)C1=N[C@H](C(=O)O)CCC1; experiment: as above; assay type: biochemical, Desulfitobacterium hafniense DCB-2; details: other: forward assay
Procedure: as §1, §2

Row | Substance | Km (N[C@@H](CCC(=O)O)C(=O)O [1]; pH 7.5, 30° C., apparent Km) | Km ([2]; pH 7.5, 30° C., apparent Km) | Km (O=C(O)CCC(=O)C(=O)O; pH 7.5, 30° C., apparent Km, pH 7.5, 30.0 °C) | Km ([3]; pH 7.5, 30° C., apparent Km) | Km (O=C(O)CCC(=O)C(=O)O) | Km [3] | Km (N[C@@H](CCC(=O)O)C(=O)O [4]) | Km [5] | Km (N[C@@H](CCC(=O)O)C(=O)O [1]) | Km [2]
1 | Chlamydia trachomatis LL-DAP aminotransferase CT390 (ct390), His-Tag fusion, SEQ ID NO: 9 (Chlamydia trachomatis D/UW-3/CX) | 1000 µM | 200 µM | 650 µM | 20 µM | – | – | – | – | – | –
2 | Desulfitobacterium hafniense LL-DAP transaminase Dhaf_3890 (Desulfitobacterium hafniense DCB-2) | – | – | – | – | 300 µM | 41 µM | 800 µM | 70 µM | – | –
3 | Methanothermobacter thermautotrophicus LL-DAP transaminase MTH52 (Methanothermobacter thermautotrophicus str. Delta H) | – | – | – | – | – | 30 µM | – | – | 3000 µM | 75 µM
4 | Synechocystis sp. PCC 6803 LL-DAP transaminase sll0480 (Synechocystis sp. PCC 6803 substr. Kazusa) | – | – | – | – | 310 µM | 17 µM | – | – | 1500 µM | 13 µM
